In series [1] the target is Truncated TFPI-K1K2 (UniProt P10646 SEQ:1-161). The series is described as follows: filter; no detectable binding up to 500 nM. The following applies: tags: American Diagnostica, E. coli expressed; label: radiolabel. On the procedure: Trace amounts of radiolabeled ARC17480 were incubated with different concentrations of truncated TFPI-K1K2 (500 nM-0.008 nM) and the K3-C-terminal domain protein (500 nM-0.7 nM) (Table 1). […] Trace amounts of radiolabeled ARC17480 were incubated with different concentrations of the C-terminal peptide (10 μM-0.17 nM) (Table 1). Neutravidin (˜100 nM monomer) was then added to the binding solution to assist in the capture of aptamer:peptide complexes on a nitrocellulose filter. The amount of radiolabeled aptamer captured on a nitrocellulose filter was quantitated and compared to the total amount of radiolabeled aptamer to generate a binding curve, which is shown in FIG. 17B.

In series [2] the target is alpha-Thrombin (UniProt P00734;P00734 P00734:328-363,P00734:364-622). The series is described as follows: filter; no significant affinity up to 0.5-1 uM.
Series [3] deals with Factor IXa (UniProt P00740;P00740 P00740:47-191,P00740:227-461). The series is described as follows: filter; no significant affinity up to 0.5-1 uM. As to conditions: label: radiolabel.
In series [4] the target is Prothrombin (UniProt P00734 P00734:44-622). The series can be described thus: filter; no significant affinity up to 0.5-1 uM. The following applies: label: radiolabel.
For series [5], the target named is Antithrombin (ATIII) (UniProt P01008 P01008:33-464). The series can be described thus: filter; no significant affinity up to 0.5-1 uM. As to conditions: label: radiolabel.
Series [6] deals with Kallikrein (UniProt P03952;P03952 P03952:20-390,P03952:391-638). The series is described as follows: filter; no significant affinity up to 0.5-1 uM. As to conditions: label: radiolabel.
Series [7] concerns the target Factor Va (UniProt P12259;P12259 P12259:29-737,P12259:1574-2224). The series is described as follows: filter; no significant affinity up to 0.5-1 uM. As to conditions: label: radiolabel.
Series [8] deals with T1, Heparin cofactor II (UniProt P05546 P05546:20-499).
T1 sequence: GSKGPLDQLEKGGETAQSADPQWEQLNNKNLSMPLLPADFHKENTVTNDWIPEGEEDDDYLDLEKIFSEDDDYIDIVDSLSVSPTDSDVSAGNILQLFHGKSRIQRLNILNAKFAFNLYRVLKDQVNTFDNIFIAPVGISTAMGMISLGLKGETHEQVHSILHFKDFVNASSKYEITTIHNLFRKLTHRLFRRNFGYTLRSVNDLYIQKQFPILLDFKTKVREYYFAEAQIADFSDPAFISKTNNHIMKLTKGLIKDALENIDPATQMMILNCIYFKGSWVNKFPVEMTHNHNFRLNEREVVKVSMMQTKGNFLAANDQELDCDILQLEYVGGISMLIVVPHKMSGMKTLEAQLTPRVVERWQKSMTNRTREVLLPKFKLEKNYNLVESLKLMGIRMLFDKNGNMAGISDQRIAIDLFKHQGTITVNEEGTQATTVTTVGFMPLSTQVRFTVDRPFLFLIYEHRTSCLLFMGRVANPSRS
The series can be described thus: filter; no significant affinity up to 0.5-1 uM. The following applies: label: radiolabel.

The target in series [9] is Factor Xa (UniProt P00742;P00742 P00742:41-179,P00742:235-488). The series is described as follows: filter; no significant affinity up to 0.5-1 uM. As to conditions: label: radiolabel.
In series [10] the target is Factor VIIa (UniProt P08709;P08709 P08709:61-212,P08709:213-466). The series can be described thus: filter; no significant affinity up to 0.5-1 uM. As to conditions: label: radiolabel.
The target in series [11] is T2, TFPI-2 (UniProt P48307 P48307:23-235).
T2 sequence: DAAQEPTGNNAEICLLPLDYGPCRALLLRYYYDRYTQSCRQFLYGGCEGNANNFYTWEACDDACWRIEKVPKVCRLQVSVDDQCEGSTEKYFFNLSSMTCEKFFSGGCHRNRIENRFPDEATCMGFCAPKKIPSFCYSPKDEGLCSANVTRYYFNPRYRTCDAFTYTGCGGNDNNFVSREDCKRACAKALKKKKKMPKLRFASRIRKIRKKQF
The series can be described thus: filter; no significant affinity up to 0.5-1 uM. As to conditions: label: radiolabel.

Series [12] concerns the target Plasmin (UniProt P00747;P00747 P00747:97-580,P00747:581-810). The series is described as follows: filter; no significant affinity up to 0.5-1 uM. As to conditions: label: radiolabel.
In series [13] the target is alpha-1 antitrypsin (serpin-A1) (UniProt P01009 P01009:25-418). The series can be described thus: filter; no significant affinity up to 0.5-1 uM. As to conditions: label: radiolabel.
The target in series [14] is Factor XIa (UniProt P03951;P03951 P03951:19-387,P03951:388-625). The series can be described thus: filter; no significant affinity up to 0.5-1 uM. As to conditions: chain copies: 2; label: radiolabel.
The target of series [15] is T3, TFPI (tissue factor pathway inhibitor, full-length) (Homo sapiens, UniProt P10646 SEQ:1-276). The series can be described thus: competition; dot-blot vs radiolabeled ARC17480, 10 nM TFPI. As to conditions: tags: American Diagnostica 4500PC/4900PC, E. coli expressed. On the procedure:
Each molecule was evaluated for binding to tissue factor pathway inhibitor (TFPI) in a binding-competition assay. For these experiments, 10 nM human TFPI (American Diagnostica, Stamford, Conn., catalog #4500PC) was incubated with trace amounts of radiolabeled ARC17480 and 5000 nM, 1666.67 nM, 555.56 nM, 185.19 nM, 61.73 nM, 20.58 nM, 6.86 nM, 2.29 nM, 0.76 nM or 0.25 nM of unlabeled competitor aptamer. ARC17480 was included as a competitor in every experiment as a control. For each molecule, the percentage of radiolabeled ARC17480 bound at each competitor aptamer concentration was used for analysis. The percentage of radiolabeled ARC17480 bound was plotted as a function of aptamer concentration and fit to the equation y=(max/(1+x/IC₅₀))+int, where y=the percentage of radiolabeled ARC17480 bound, x=the concentration of aptamer, max=the maximum radiolabeled ARC17480 bound, and int=the y-intercept, to generate an IC₅₀ value for binding-competition. The IC₅₀ of each aptamer was compared to the IC₅₀ of ARC17480 that was evaluated in the same experiment. A substitution was considered tolerated in the binding-competition assay if the IC₅₀ of that molecule was not more than 5-fold greater than that of ARC17480 evaluated in the same experiment. Tolerated substitutions are indicated in Table 37 as meeting the assay criteria (“yes”) or not meeting the assay criteria (“no”).

For series [16], the target named is T3, TFPI (tissue factor pathway inhibitor, …). The series can be described thus: competition; dot-blot, 10 nM TFPI. The following applies: tags: American Diagnostica 4500PC/4900PC, E. coli expressed. On the procedure:
The substituted ARC17480 molecules were assayed for binding and function. The assays used for this evaluation were the calibrated automated thrombogram (CAT) assay, a dot-blot binding-competition assay and a FXa activity assay. The results of these assays are summarized in Table 40 and depicted in FIG. 147. A mutation was considered tolerated for activity if it met the criteria of at least two of the three assays that were carried out. Mutations that are tolerated (“yes”) and not tolerated (“no”) are identified in Table 40. The experimental details and the criteria used for each assay are described in the following paragraphs. The molecules described in this example were first tested in the CAT assay and the dot-blot binding-competition assay. In most cases, molecules were only tested in the FXa assay if there was a discrepancy between the results in the CAT assay and the dot-blot binding-competition assay.
Each molecule was evaluated for binding to tissue factor pathway inhibitor (TFPI) in a binding-competition assay. […] The IC₅₀ of each aptamer was compared to the IC₅₀ of ARC17480 that was evaluated in the same experiment. A mutation was considered tolerated in the binding-competition assay if the IC₅₀ of that molecule was not more than 5-fold greater than that of ARC17480 evaluated in the same experiment. […]

From US20110281938, “APTAMERS TO TISSUE FACTOR PATHWAY INHIBITOR AND THEIR USE AS BLEEDING DISORDER THERAPEUTICS” (Baxter Healthcare S.A., published 2011) come the findings set out here.

B1: ARC17480 (mixed)
RNA: GGAAUAUACUUGGCUCGUUAGGUGCGUAUAUA
modifications: 2'-OMe A/G/U, 2'-deoxy C, 3' idT
On to B1, for which the binding result in series [1], in series [2], in series [3], in series [4], in series [5] and in series [6] was “no binding” in each case. Besides, the binding result in series [7], in series [8], in series [9], in [10], in [11] and in series [12] was “no binding” throughout. For the same molecule, the binding result in [13] and in series [14] was “no binding” each time.

B2: ARC18539 (XNA)
RNA: GGAAUAUACUUGGCUCGUUAGGUGCGUAUAUA
modifications: 2'-OMe except dC9, dC16, dC25; 2'-OMe C14; 3' idT
Regarding B2, the binding signal in series [15] was at most 5 fold IC50 vs ARC17480.

B3: ARC34856 (XNA)
RNA: AGAAUAUACUUGGCUCGUUAGGUGCGUAUAUA
modifications: 2'-OMe except dC9, dC14, dC16, dC25; 3' idT
In turn, B3 showed a binding signal in [16] of at most 5 fold IC50 vs ARC17480.
